From IntAct's records for PubMed 21258410

B1: Mothers against decapentaplegic homolog 7 (Homo sapiens), O15105 (parent)
chain: MFRTKRSALVRRLWRSRAPGGEDEEEGAGGGGGGGELRGEGATDSRAHGAGGGGPGRAGCCLGKAVRGAKGHHHPHPPAAGAGAAGGAEADLKALTHSVLKKLKERQLELLLQAVESRGGTRTACLLLPGRLDCRLGPGAPAGAQPAQPPSSYSLPLLLCKVFRWPDLRHSSEVKRLCCCESYGKINPELVCCNPHHLSRLCELESPPPPYSRYPMDFLKPTADCPDAVPSSAETGGTNYLAPGGLSDSQLLLEPGDRSHWCVVAYWEEKTRVGRLYCVQEPSLDIFYDLPQGNGFCLGQLNSDNKSQLVQKVRSKIGCGIQLTREVDGVWVYNRSSYPIFIKSATLDNPDSRTLLVHKVFPGFSIKAFDYEKAYSLQRPNDHEFMQQPWTGFTVQISFVKGWGQCYTRQFISSCPCWLEVIFNSR

Variants of: B1
Details: with wwp2_human WWP2, O00308
Chain of wwp2_human WWP2, O00308 (O00308 whole entry): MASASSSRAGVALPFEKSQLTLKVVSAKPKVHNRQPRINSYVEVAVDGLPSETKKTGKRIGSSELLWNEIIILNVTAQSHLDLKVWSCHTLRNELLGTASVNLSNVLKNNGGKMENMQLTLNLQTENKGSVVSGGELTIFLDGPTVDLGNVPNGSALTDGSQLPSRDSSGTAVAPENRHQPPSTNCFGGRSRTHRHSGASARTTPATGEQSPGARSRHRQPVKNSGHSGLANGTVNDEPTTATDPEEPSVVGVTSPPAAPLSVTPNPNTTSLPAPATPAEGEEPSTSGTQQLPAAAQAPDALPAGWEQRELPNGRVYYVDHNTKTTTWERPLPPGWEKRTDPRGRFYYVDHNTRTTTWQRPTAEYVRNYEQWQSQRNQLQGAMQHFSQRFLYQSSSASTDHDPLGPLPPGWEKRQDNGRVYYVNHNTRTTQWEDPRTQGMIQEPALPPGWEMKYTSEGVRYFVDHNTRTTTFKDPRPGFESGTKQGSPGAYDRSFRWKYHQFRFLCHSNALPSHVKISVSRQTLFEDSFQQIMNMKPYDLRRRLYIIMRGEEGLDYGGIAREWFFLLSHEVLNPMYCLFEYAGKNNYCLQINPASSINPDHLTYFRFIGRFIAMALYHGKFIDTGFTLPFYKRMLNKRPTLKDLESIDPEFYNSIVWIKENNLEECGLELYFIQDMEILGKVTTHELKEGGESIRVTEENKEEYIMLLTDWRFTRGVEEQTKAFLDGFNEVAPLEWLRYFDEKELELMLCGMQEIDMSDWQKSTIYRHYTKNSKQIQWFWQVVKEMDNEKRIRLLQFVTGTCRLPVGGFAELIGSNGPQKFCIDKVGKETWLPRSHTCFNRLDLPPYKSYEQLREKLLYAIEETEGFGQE

Q: Which “effect of a mutation on the interaction” value does the source give for P210G;Y211S here?
A: disrupting interaction
